Laboratory results as given in the RNAGym collection of RNA variant scans (doi:10.1073/pnas.2313332121).
This sample holds only a part of the variants without activity.

B1: TPR 5TU (parent)
chain: GGAUCUUCUCGAUCUAACAAAAAAGACAAAUCUGCCACAAAGCUUGAGAGCAUCUUCGGAUGCAGAGGCGGCAGCCUUCGGUGGCGCGAUAGCGCCAACGUUCUCAACUAUGACACGCAAAACGCGUGCUCCGUUGAAUGGAGUUUAUCAUG

Variants of: B1
Assay: polymerase ribozyme fitness, log enrichment relative to wild type (log ratio); higher = more active; in vitro selection for triplet polymerase activity
How it was run: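 PCR was used to build mutant libraries for each subunit of a heterodimeric triplet polymerase ribozyme, which were then transcribed. A single in vitro selection round, in triplicate, used a frozen incubation at −7 °C and recovered extended constructs by gel excision, streptavidin beads and RT-PCR. Fitness is the logarithm of genotype enrichment relative to wild-type enrichment, averaged over replicates with inverse-variance weights. The logarithm is base 2, and after Illumina sequencing only genotypes with ≥10 input reads and ≥1 read per output were kept.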

Variant | polymerase ribozyme fitness (log ratio)
GGAUCUUCUCGAUCAAACAAAAAAGACAAGUCUGCCACAAAGCUUGAGAGCAUCUUCGGAUGCAGAGGCGGCAGCCUGCGGUGGCGGGAUAGCGCCAACGUUCUCAACUAUGACACGCAAAACGCGUGCUCCGUUGAAUGGAGUUUAUCAUG [U15A A30G U78G C87G] | ≤ -4.2
GGAUCUUCUCGAUUUAACAAAAAAGACAAAUCUGCCACAAAGCUUGAGAGCAUCUUCGGAUGCAGAGGCGGCAGCCUCCGGUGGCGCGAUAGCGCCAACGUUCUCAACUAUGACACGCAAAACGCGUGCUCCGUUGAAUGGAGUUUAUCAUG [C14U U78C] | -2.43
GGAUCUUCUCGAUCAAACAAAAUAGACAAAUCUGCCACCAAGCUUGUGAGCAUCUUCGGAUGCAGAGGCGGCAGCCUUCGGUGGCGCGAUAGCGCGAACGUUCUCAACUAUGACACGCAAAACGCGUGCUCCGUUGAAUGUAGUUUAUCAUG [U15A A23U A39C A47U C96G G141U] | ≤ -4.2
GGAUCUUCUCGAUCAAACAAAAAAGACAAAUCUGCCACAAAGCUUGAGAGCAUCUUCGGAUGCAGAGGCGGCAGCUUUCGGUGGCGCGAUAGCGCCAAGGUUCUGAACUAUGACACGCAAAACGCGUGCUCCGUUGAAUGGAGUUUAUCAUG [U15A C76U C99G C105G] | ≤ -4.2
GGAUCUUCUCGAUCAAACAAAAAAGACAAAUCUGCCACAAAGCUUGAGAGCAUCUUCGGAUGCAGAGGCGGCUGCGUUCGGUGGCGCGAUAGCGCCAACGUUCUCAACUAUGACACGAAAAACGCGUGCUCCGUUGACUGCAGUUUAUCAUG [U15A A73U C76G C118A A138C G141C] | ≤ -4.2
GGAUCUUCUCGAUUUAACAAAAAAGACAAAUCUGCCACAAAGCUUGAGAGCAUCUGCGGAUGCAGAGGCGGCAGCCUCCGGUGGCUCGAUAGCGCCAACGUUCUCAACUAUGACACGCAAAACGCGUGCUCCGUUGAAUGGAGUUUAUCAUG [C14U U56G U78C G86U] | -4.1
GGAUCUUCUCGAUCAAACAAAAAAGACAAAUCUGCCACAAAGCUUUCGAGCAUCUUCGGAUGCAGAGGCGGUAGCCUUCGGUGGCGCUAUAGCAGCGACGUUCUCAAGUAUGACGCGCAAAACGCGUGCUCCGUUGAAUGGAGUUUAUCAUG [U15A G46U A47C C72U G88U G94A C95G A97G C108G A115G] | ≤ -4.2
GGAUCUUCUCGAUCAAACAAAAAAGACAAAUCUGCCAAAAAGCUUGAGAGCAUCUUCGGAUGCAGAGGCGGCUGCCUUCGGUUCCGCGAUAGCGCCAACGUUCUCAACUAUGACACGCAAAACGCGUGCUCCGUUGAAUGGAGUUUAUCAUG [U15A C38A A73U G83U G84C] | ≤ -4.2
GGAUCUUCUCGAUCAAACAAAAAAGACAAAUCUGCCACAAAGCUUGAGCGCAACUUCGGAUGCAGAGGCGGCAGCCUUCGGUGGCUCGAUAGCGCCAACGUUCUCAACUAUGACACGCAAAACGCGUGCUCCGUUGAAUGGAGUUUAUCAUG [U15A A49C U53A G86U] | ≤ -4.2
GGAUCUUCUCGAUCAAACAAAAAAGACAAAUCUGCCACAAAGCUUGAGAGCAUCUUCGGAUGCAGAGGCGGCAGCCUUCGGUGGCGAGAUAGCGCCAACGUUCUCAUAUAUGACACGCAAAACGCGUGCUCCGUUGAAUGGAGUUUAUCAUG [U15A C87A A107U C108A] | ≤ -4.2
GGAUCUUCUCGAUCAAACAAAAAAGACAAAUCUGCCACAAAGCUUGAGAGCAUCUUCGGAUGCAGAGGCGGCAGCCUUCGGUGUCGCGAUAGCGUCAACGUUCUCAACUAUGACACGCAAAACGCGUGCUCCGUUGAAUGGACUUUAUCAUG [U15A G84U C95U G143C] | -4.14
GGAUCUUCUCGAUCAAACAAAAAAGACAAAUCUGCCACAAAGCUUGAGAGCAUCUACGGAUGCAGAGGCAGCAGCCUUCGGUGGCGCGAUAGCGCCAACGUUCUCAACUAUGACACGCAAAACGCGUGCUCCGUUGAAUGGAGUUUAUCAUG [U15A U56A G70A] | -4.2
GGAUCUUCUCGAUCAAACAAAAAAGACAAAUCUGCCACAAAGCUUGAGAGUAUCUUCUGAUGCAGAGGGGGCAGCCUUCGGUGGCGCGAUAGCGCCAACGUUCUCAACUAUGACACGCAAAACGCGUGCUCCGUUGAAUGGAGUUUAUCAUG [U15A C51U G58U C69G] | -1.91
GGAUCUUCUCGAUCAAACAGAAAAGUCAAAUCUGCCACGAAGCUUGCGAGCAUCUUCGGAUGCAGAGGCGGCAGCCUUUGGUGGCGCGAUAGCGCCAACGUUGUCAACUAUGACACGCAAAACGCGUGCUCCGUUGAAUAGAGUUUAUCAUG [U15A A20G A26U A39G A47C C79U C103G G140A] | ≤ -4.2
GGAUCUUCUCGAUCAAACAAAAAAGACAAAUCUGCCACAAAGCUUGAGAGCAUCUUCGGAUGCAGAGGCGGCAGCCUUCGGUGGCGCGAUGGCGCCAACCUUCUCAACUAUGACACGCAAAACGCGUGCUCCGUUGAAUGGAGUUUAUCAUG [U15A A91G G100C] | ≤ -4.2
GGAUCUUCUCGAUCAAUCAAAAAAGACAAAUCUGCCACAAAGCUUGAGAGCAUCUUCGGAUGCAUAGGCGGCAGCCUUCGGUGGCGCGAUAGCGCCAACGUUCUCAACUAUGACACGCAAAACGCGUGCUCCGUUGAAUGGAGUUUAUCAUG [U15A A17U G65U] | ≤ -4.2
GGAUCUUCUCGAUCAAACACAAAAGACAAAUCUGCCACAAAGCUUGAGAGCAUCUUCGGAUGCAGAGGCGGCACCCUUCGAUGGCGCGAUAGCGCCAACGUUCUGAACUAUGACACGCAAAACGCGUGCUCCGUGGAAUGGAGUGUAACAUG [U15A A20C G74C G81A C105G U135G U145G U148A] | ≤ -4.2
GGAUCUUCUCGAUCAAACAAACAAGACAAAUCUGCCACAAAGCUUGAGAGCAUCUUCGGAUGCAGAGGCGGAAGCCUUCGGUGGCGGUAUAGCGCCAACGUUCUCAACUAUGACACGCAAAACGCGUGCUCCCUUGAAUGGAGUUUAUCAUG [U15A A22C C72A C87G G88U G133C] | ≤ -4.2
GGAUCUUCUCGAUCAAACAAAAAAGACAAAUCUGCCACAAAGCUUGAGAGCAUCUUCGGAUGCAGAGGCGGCAGCCUUCGGUGGCGUGAUAGCGCCAACGUUCUCAACUAUGACACGCAAAACGCGUGCUCCGUUGAAUGGAGUUUAUCAUG [U15A C87U] | -0.632
